Measured values taken from patent US20060193771A1.

T1: recombinant soluble CD30 (sCD30) produced in E. coli (human)
T1 sequence: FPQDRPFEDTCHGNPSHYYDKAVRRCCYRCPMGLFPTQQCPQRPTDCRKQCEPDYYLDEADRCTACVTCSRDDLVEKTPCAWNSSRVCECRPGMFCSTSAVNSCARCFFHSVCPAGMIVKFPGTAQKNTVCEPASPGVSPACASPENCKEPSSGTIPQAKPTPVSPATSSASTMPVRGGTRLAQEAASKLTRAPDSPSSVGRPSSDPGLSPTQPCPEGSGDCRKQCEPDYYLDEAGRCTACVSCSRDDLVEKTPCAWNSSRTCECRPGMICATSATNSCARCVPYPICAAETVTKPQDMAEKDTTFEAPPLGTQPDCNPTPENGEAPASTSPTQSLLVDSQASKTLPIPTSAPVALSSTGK

T2: CD30-Fc (human)
T2 sequence: T1 sequence

B1: CL2(scFv)-PE38 (scFv, V domains shown)
VH: EVQLKQSGTELVKPGASVKLSCKASGYTFTSYWMHWVKQRPGQGLEWIGNINPSNGGTNYNEKFKSKATLTIDKSSSTAYMQLSSLTSEDSAVYYCARRTETAQASPFAYWGQGTLVTVSS
VL: DIVMTQSHKFMSTSVGDRVSVTCKASQNVGTNVAWYQQKPGQSPKALIYSASTRYSGVPDRFTGSGSGTDFTLTISNVQSEDLAEYFCQQYNSYPFTFGSGTKLEIK
B2: HeFi-I MAb (antibody, V domains shown)
VH: EVKLVESGGGLVQPGGSLRLSCATSGFTFSDYYMNWVRQPPGKALEWLGFIRNKANGYTTEFSASVMGRFTISRDDSQSILYLQMNTLRAEDSATYYCARDPPYGNPHYYAMDYWGQGTSVTVSS
VL: DIVLTQSPASLAVSLGQRATISCRASKSVSASGYNYMHWYQQKAGQPPKLLIHLASNLESGVPARFSGSGSGTDFTLNIHPVEEEDASTYYCQHSGELPFTFGSGTKLEIK
B3: T7 MAb (antibody, V domains shown)
VH: QVQLQQSGAELVRPGSSVKISCKASGYTFSSYWMNWMKQRPGQGLEWIGQIYPGDDDTNYNGKFKGKATLTADKSSSTAYMQLSSLTSEDSAVYFCARRETGRGAWFTYWGQGTLVTVSA
VL: DIVLTQSPASLAVSLGQRATISCRASESLEYYGTTLMQWYQQKPGQPPKLLIYAASNVESGVPARFSGSGSGTDFSLNIHPVEEDDIAMYFCHQSRKVPSTFGGGTKLEIK

Tests used:
[1] = molecular target: T1, recombinant soluble CD30 (sCD30) produced in E. coli (human); assay: SPR (BIAcore), sCD30 immobilized
[2] = molecular target: human CD30, native, expressed on cells (human); assay: cell-based or functional assay
[3] = molecular target: human CD30, native, expressed on cells (human); assay: competitive FACS on L540 cells, unlabeled MAb 2.5 µg/ml; competitor: biotin-T14
[4] = molecular target: human CD30, native, expressed on cells (human); assay: FACS, L428 cells, MAb 5 µg/ml; HeFi-I is the control itself
[5] = molecular target: T1, recombinant soluble CD30 (sCD30) produced in E. coli (human); assay: SPR (BIAcore), sCD30 immobilized; not corrected for bivalency
[6] = molecular target: human CD30, native, expressed on cells (human); assay: competitive FACS on L540 cells, unlabeled MAb 2.5 µg/ml; competitor: biotin-HRS-4
[7] = molecular target: human CD30, native, expressed on cells (human); assay: competitive FACS on L540 cells, unlabeled MAb 2.5 µg/ml; competitor: biotin-T24
[8] = molecular target: human CD30, native, expressed on cells (human); assay: FACS, L540 cells, MAb 5 µg/ml; HeFi-I is the control itself
[9] = molecular target: human CD30, native, expressed on cells (human); assay: competitive FACS on L540 cells, unlabeled MAb 2.5 µg/ml; competitor: biotin-T6
[10] = molecular target: human CD30, native, expressed on cells (human); assay: competitive FACS on L540 cells, unlabeled MAb 2.5 µg/ml; competitor: biotin-HeFi-I
[11] = molecular target: T1, recombinant soluble CD30 (sCD30) produced in E. coli (human); assay: indirect ELISA, sCD30 coated
[12] = molecular target: human CD30, native, expressed on cells (human); assay: competitive FACS on L540 cells, unlabeled MAb 2.5 µg/ml; competitor: biotin-T25
[13] = molecular target: T2, CD30-Fc (human); assay: affinity of the MAb; ELISA using CD30-Fc

Row | Binder | Kd [1] [nM] | koff [1] [s⁻¹] | kon [1] [M⁻¹ s⁻¹] | IC50, cytotoxicity on A431 cells stably transfected with CD30 [2] [ng/mL] | inhibition of the binding of biotin-MAb (%) [3] [%] | relative reactivity in FACS (% of control) [4] | Kd [5] [nM] | koff [5] [s⁻¹] | kon [5] [M⁻¹ s⁻¹] | inhibition of the binding of biotin-MAb (%) [6] [%] | inhibition of the binding of biotin-MAb (%) [7] [%] | relative reactivity in FACS (% of control) [8] | inhibition of the binding of biotin-MAb (%) [9] [%] | inhibition of the binding of biotin-MAb (%) [10] [%] | titer in ELISA [11] [mL/µg] | inhibition of the binding of biotin-MAb (%) [12] [%] | Kd [13] [nM]
1 | B1 | 56 | 0.0022 | 38000 | 2.5 | – | – | – | – | – | – | – | – | – | – | – | – | –
2 | B2 | – | – | – | – | 0 | 100 % of control | 7.8 | 0.00054 | 72000 | 0 | 33.4 | 100 % of control | 0 | 98 | 105 | 8.4 | 2.4
3 | B3 | – | – | – | – | – | – | – | – | – | – | – | – | – | – | – | – | 3.5
